We go through eleven molecules from patent US20240425587A1 (Alector, published 2024).

The chains are these.
B1: E15 (antibody, V domains shown)
VH: QVQLQQSGAELVKPGASVKLSCKASGNTFTIYDINWVRQRPEQGLEWIGWIFPGDGSTKYNGKFKGKATLTTDKSSSTAYMQLSRLTSEDSAVYFCARRAHYYGSSFDYWGQGTTLTVSS
VL: DIQMTQSSSYLSVSLGGRVTITCKASDHINNWLAWYQQKPGNGPRLLISGAISLEIGVPSRFSGSGSGKEYTLSITSLQTEDVATYYCQQYWSPPWTFGGGTKLEIK
notes: B-cell cloning campaign (mice)
B2: A1 (antibody, V domains shown)
VH: QVQLVQSGAEVKKPGSSVKVSCKASGYTFINHDINWVRQAPGQGLEWMGWMNPNSGNTGYAQKFQGRVTITADESTSTAYMELSSLRSEDTAVYYCARDRRGSYYGLMDWFDPWGQGTLVTVSS
VL: DIQMTQSPSSLSASVGDRVTITCRASQSISRWLAWYQQKPGKAPKLLIYDASNLETGVPSRFSGSGSGTDFTLTISSLQPEDFATYYCQQSYSTPSFGQGTKVEIK
notes: phage campaign
B3: A5 (antibody, V domains shown)
VH: QVQLVQSGAEVKKPGSSVKVSCKASGYTFTDYYMNWVRQAPGQGLEWMGGIIPIFGTADYAQRFQGRVTITADESTSTAYMELSSLRSEDTAVYYCARDAGYYGMDVWGQGTLVTVSS
VL: EIVMTQSPATLSVSPGERATLSCRASQSVSNYLAWYQQKPGQAPRLLIYGASTRATGIPARFSGSGSGTEFTLTISSLQSEDFAVYYCQQFDDLPLTFGPGTKVEIK
notes: phage campaign
B4: A12 (antibody, V domains shown)
VH: QVQLVQSGAEVKKPGASVKVSCKASGYNFNDYYIHWVRQAPGQGLEWMGWISAYNGNTNYAQKLQGRVTMTRDTSTSTVYMELSSLRSEDTAVYYCARDGWYCSSSSCYTGSDYWGQGTLVTVSS
VL: DIQMTQSPSSLSASVGDRVTITCRASQSISNYLNWYQQKPGKAPKLLIYGASTLHSGVPSRFSGSGSGTDFTLTISSLQPEDFATYYCQQSYSTPFTFGPGTKVDIK
notes: phage campaign
B5: A15 (antibody, V domains shown)
VH: QVQLVQSGAEVKKPGASVKVSCKASGGTFSNYGLTWVRQAPGQGLEWMGWINLNSGGTYYAQKFQGRVTMTRDTSTSTVYMELSSLRSEDTAVYYCARDRYSSGWYEGDAFDIWGQGTMVTVSS
VL: B4 VL with S28G, Y32W, N34A, G50A, T53S, H55Q, F96W
notes: phage campaign
B6: A6 (antibody, V domains shown)
VH: QVQLVQSGAEVKKPGSSVKVSCKASGYTFINYDINWVRQAPGQGLEWMGGIIPIFGAPVYAQDFQGRVTITADESTSTAYMELSSLRSEDTAVYYCAIADGAGWFDPWGQGTLVTVSS
VL: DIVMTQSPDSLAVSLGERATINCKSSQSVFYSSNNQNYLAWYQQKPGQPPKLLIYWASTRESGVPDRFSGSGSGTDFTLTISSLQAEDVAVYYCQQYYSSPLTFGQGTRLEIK
notes: phage campaign
B7: A2 (antibody, V domains shown)
VH: EVQLLESGGGLVKPGGSLRLSCAASGFTFSDYYMSWVRQAPGKGLEWVSSISIGGGGTYYADSVKGRFTISRDDSKNTLYLQMNSLRAEDTAVYYCASHGFGARKMDFWGQGTTVTVSS
VL: DIQMTQSPSSLSASVGDRVTITCRASQSIRSYVNWYQQKPGKAPKLLIYDASNLETGVPSRFSGSGSGTDFTLTISSLQPEDFATYYCQQSYSPPITFGQGTKVEIK
notes: phage campaign
B8: A14 (antibody, V domains shown)
VH: QVQLVQSGAEVKKPGASVKVSCKASGYTFTSYYMYWVRQAPGQGLEWMGWMNPNSGNTGFAQKFQGRVTMTRDTSTSTVYMELSSLRSEDTAVYYCASGYYDSWSGETDYGMDVWGQGTTVTVSS
VL: B7 VL with R30S, V33L, N53T, T56S, S93K, P94T, I96Y, V104L
notes: phage campaign
B9: A3 (antibody, V domains shown)
VH: EVQLLESGGGLVQPGGSLRLSCAASGFTFSRYEMNWVRQAPGKGLEWVAGISYDGSYEYYADSVKGRFTISRDNSKNTLYLQMNSLRAEDTAVYYCAKGSYGYDAFDIWGQGTMVTVSS
VL: B7 VL with R30S, Y32W, V33L, N34A, D50A, A51T, N53T, E55Q, T56S, I96Y
notes: phage campaign
B10: E5 (antibody, V domains shown)
VH: QVQLVQSGAEVKKPGSSVKVSCKASGYTFTSYGINWVRQAPGQGLEWMGWINPNSGDTLYAQNFQGRVTITADESTSTAYMELSSLRSEDTAVYYCARGPEPYWYFDLWGRGTLVTVSS
VL: EIVMTQSPATLSVSPGERATLSCRASQNIDSRFLAWYQQKPGQAPRLLIYGASTRATGIPARFSGSGSGTEFTLTISSLQSEDFAVYYCQQSFSTPLTFGGGTKVEIK
B11: A4 (antibody, V domains shown)
VH: QVQLVQSGAEVKKPGSSVKVSCKASGYTFTGYAVNWVRQAPGQGLEWMGGIIPIFGTANYAQKFQGRVTITADESTSTAYMELSSLRSEDTAVYYCARNLGYSSGWSGYYYGMDVWGQGTMVTVSS
VL: EIVMTQSPATLSVSPGERATLSCRASQSVSSNYLAWYQQKPGQAPRLLIYGASTRATGIPARFSGSGSGTEFTLTISSLQSEDFAVYYCQQYGSSSFTFGPGTKLEIK
notes: phage campaign

Where a chain is given by its changes, count along the chain named. In names and notes the source's numbering stands.

Sequence of cynomolgus PILRA, ectopically expressed on 293 cells (cynomolgus monkey) (chain, as listed by the source): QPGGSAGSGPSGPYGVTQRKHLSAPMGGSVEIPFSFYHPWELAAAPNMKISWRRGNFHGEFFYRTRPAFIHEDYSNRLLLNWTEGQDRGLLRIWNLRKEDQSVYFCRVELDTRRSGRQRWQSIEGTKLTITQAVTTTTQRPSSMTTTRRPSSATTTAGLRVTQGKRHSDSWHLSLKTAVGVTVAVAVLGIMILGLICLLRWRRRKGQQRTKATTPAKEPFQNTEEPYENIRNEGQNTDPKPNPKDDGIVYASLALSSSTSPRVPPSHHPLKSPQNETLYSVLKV
T2 sequence (Q9UKJ0 20-227): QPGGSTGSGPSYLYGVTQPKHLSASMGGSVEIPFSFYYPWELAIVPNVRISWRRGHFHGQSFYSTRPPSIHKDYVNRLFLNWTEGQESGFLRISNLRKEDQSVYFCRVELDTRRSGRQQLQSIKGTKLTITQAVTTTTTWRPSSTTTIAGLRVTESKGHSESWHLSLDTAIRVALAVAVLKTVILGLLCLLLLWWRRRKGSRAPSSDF
T1 sequence (Q9UKJ1 other isoform, or with tags, fused parts or gaps mutant): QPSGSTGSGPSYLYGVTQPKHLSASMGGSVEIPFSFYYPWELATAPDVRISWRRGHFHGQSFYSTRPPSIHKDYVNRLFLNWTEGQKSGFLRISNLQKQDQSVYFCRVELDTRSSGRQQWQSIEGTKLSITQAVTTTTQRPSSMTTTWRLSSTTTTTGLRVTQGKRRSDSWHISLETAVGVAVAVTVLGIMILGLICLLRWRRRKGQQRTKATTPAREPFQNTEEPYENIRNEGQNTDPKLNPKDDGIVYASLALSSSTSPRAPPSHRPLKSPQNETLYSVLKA

The first test addresses T1, human PILRA, G78 variant, ectopically expressed on 293 cells (human, UniProt Q9UKJ1 20-303).
T1 construct: the cells are labelled G78; also called hA G78 OE; hA
As to the kind of experiment: flow cytometry, 293 cells expressing target. As for the experimental part: (§1) Briefly, conditioned media containing antibodies were incubated with 293 cells for 30 min at 4° C., washed twice, and then detected with anti-mouse IgG Alexa 647.
Background: Flow cytometry measures light scatter and fluorescence of single cells or particles in a stream.
As to B1, it took 4.73 µg/mL to reach a half-maximal effect (EC50).
In the case of B2, the concentration giving a half-maximal response (EC50) – broadly, the concentration at which the effect is half-maximal – stood at 1.9 µg/mL.
Still for that read-out and setting: with B3 the figure was 3.4 µg/mL; with B4, 0.4 µg/mL.
The molecule B5 displayed a concentration for a half-maximal effect (EC50) of 0.2 µg/mL.
The same measure, in the same setting: with B6 the figure was 1.7 µg/mL; with B7, 0.3 µg/mL; with B8, 0.5 µg/mL.
The same measure, in the same setting: with B9 the figure was 0.1 µg/mL.
For B10, the half-maximal effective concentration (EC50) came to 0.1 µg/mL.
B11 showed a 50% effective concentration (EC50) of 0.7 µg/mL.

The next test has as its target T2, human PILRB, ectopically expressed on 293 cells (human, UniProt Q9UKJ0 20-227).
T2 construct: also called hB
As to the kind of experiment: flow cytometry, 293 cells expressing target. As for the experimental part:
as §1
B1 registered a concentration giving a half-maximal response (EC50) of 16.4 µg/mL.
For B2, the binding result is given as “no binding”.
On the same count and under the same terms, with B3 the entry was “no binding”.
B4 registered an EC50 of 8.6 µg/mL.
On the same count and under the same terms, with B5 the figure was 10.5 µg/mL.
B6: the binding result is “no binding”.
In turn, B8 came in with a half-maximal effective concentration (EC50) of 12.9 µg/mL.
B9: the binding result was “no binding”.
B10 gave a concentration giving a half-maximal response (EC50) of 0.3 µg/mL.
In the case of B11, the binding result is recorded as “no binding”.

The target in the next test is cynomolgus PILRA, ectopically expressed on 293 cells (cynomolgus monkey). As to the kind of experiment: flow cytometry, 293 cells expressing target. As for the experimental part:
as §1
Molecule B1 had a 50% effective concentration (EC50) of 14.6 µg/mL.
Take B2: the binding result was “no binding”.
B3 yielded an EC50 of 2.8 µg/mL.
In turn, B4 came in with a concentration for a half-maximal effect (EC50) of 8.6 µg/mL.
Take B5: a half-maximal response (EC50) required 11.1 µg/mL.
Same read-out and setting: with B6 the figure was 0.3 µg/mL.
On to B7, for which the binding result is recorded as “no binding”.
The molecule B8 yielded a 50% effective concentration (EC50) of 11.5 µg/mL.
Regarding B9, the binding result was “no binding”.
Still for that read-out and setting: with B10 the entry was “no binding”.
In turn, B11 came in with an EC50 of 1.3 µg/mL.

The target of another test is T3, murine PILRA, ectopically expressed on 293 cells (murine, UniProt Q2YFS3 32-302).
T3 construct: also called mA
T3 sequence (Q2YFS3 32-302): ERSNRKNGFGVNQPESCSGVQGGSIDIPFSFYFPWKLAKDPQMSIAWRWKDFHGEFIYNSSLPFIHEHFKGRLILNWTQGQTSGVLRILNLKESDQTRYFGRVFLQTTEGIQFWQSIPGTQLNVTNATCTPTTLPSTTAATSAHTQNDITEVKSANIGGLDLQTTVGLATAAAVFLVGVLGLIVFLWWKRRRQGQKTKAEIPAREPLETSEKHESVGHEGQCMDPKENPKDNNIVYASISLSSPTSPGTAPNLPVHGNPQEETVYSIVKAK
As to the kind of experiment: flow cytometry, 293 cells expressing target. As for the experimental part:
as §1
In the case of B1, the binding result is listed as “no binding”.
The same measure, in the same setting: with B2 the entry was “no binding”.
On the same count and under the same terms, with B3 the entry was “no binding”; with B4, “no binding”.
The same measure, in the same setting: with B5 the entry was “no binding”; with B6, “no binding”; with B7, “no binding”.
Take B8: the binding result is recorded as “no binding”.
The same measure, in the same setting: with B9 the entry was “no binding”; with B10, “no binding”.
The same measure, in the same setting: with B11 the entry was “no binding”.

The target of another test is T4, murine PILRB, ectopically expressed on 293 cells (murine, UniProt Q2YFS2 29-224).
T4 construct: whole, on cells; also called mB
T4 sequence (Q2YFS2 29-224): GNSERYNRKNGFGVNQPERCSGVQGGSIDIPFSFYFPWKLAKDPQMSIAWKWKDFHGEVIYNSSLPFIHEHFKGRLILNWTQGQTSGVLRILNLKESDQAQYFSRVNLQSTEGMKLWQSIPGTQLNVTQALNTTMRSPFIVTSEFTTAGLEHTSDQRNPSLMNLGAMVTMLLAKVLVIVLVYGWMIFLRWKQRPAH
As to the kind of experiment: flow cytometry, 293 cells expressing target. As for the experimental part:
as §1
In the case of B1, the binding result was “no binding”.
The same measure, in the same setting: with B2 the entry was “no binding”; with B3, “no binding”.
Same read-out and setting: with B4 the entry was “no binding”; with B5, “no binding”; with B6, “no binding”.
Still for that read-out and setting: with B7 the entry was “no binding”.
As for B8, the binding result is given as “no binding”.
As to B9, the binding result was “no binding”.
Consider B10, for which the binding result is given as “no binding”.
Same read-out and setting: with B11 the entry was “no binding”.

In the next test the target is T5, human PILRA, c-term His-Avi tag (human, UniProt Q9UKJ1 20-197, limits assumed).
T5 construct: not shown: C-terminal His-Avi tag
T5 sequence (Q9UKJ1 20-197 limits assumed): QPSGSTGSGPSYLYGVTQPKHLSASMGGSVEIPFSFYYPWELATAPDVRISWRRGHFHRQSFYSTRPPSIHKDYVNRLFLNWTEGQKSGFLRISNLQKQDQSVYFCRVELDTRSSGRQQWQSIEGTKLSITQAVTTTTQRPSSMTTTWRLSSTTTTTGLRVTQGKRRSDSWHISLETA
As to the kind of experiment: SPR (Biacore), antibody captured, PILRA as analyte. As to the method: Experiments were performed to determine the kinetics of anti-PILRA antibody binding to human […]. The assay is depicted in FIG. 6. A rabbit anti-PILRA was used as a positive control, and H1 LALAPS was used as a negative control. Human PILRA (human PILRA, c-term His-Avi tag, 0.68 mg/mi) was used as the antigen. The running buffer was HBSTE/0.5% BSA, pH 7.4, and the regeneration solution was 10 mM glycine-HCl (pH 2.1). In the assay, antibodies were captured at 10 μg/ml by immobilized anti-huFc or anti-msFc on a Biacore CM5 chip, and human PILRA flowed at 33, 100, and 300 nM. The surface was regenerated after each analyte, and all curves were double-referenced with buffer injections.
(In general: Surface plasmon resonance follows binding to a sensor surface in real time, without labels.)
B1: the dissociation constant Kd (in general, the free concentration of one partner at which half of the binding sites on the other are occupied at equilibrium, for simple one-to-one binding) stood at 31.3 nM; the koff (as a rule, the rate constant with which the complex falls apart) turned out to be 0.0017 s⁻¹; the kon (usually the second-order rate constant of association) was determined as 53000 M⁻¹ s⁻¹; the t½ (in general, the time needed for the level to fall by half in the phase considered) is 6.9 min.
B2 showed a dissociation constant (Kd) of 99.6 nM, a koff of 0.0038 s⁻¹ and a kon of 38000 M⁻¹ s⁻¹.
For B3 the same measures were 32.1 nM, 0.0045 s⁻¹ and 140000 M⁻¹ s⁻¹.
B4 displayed a dissociation constant Kd of 19.3 nM, a koff of 0.0012 s⁻¹, a kon of 63000 M⁻¹ s⁻¹ and a t½ of 9.6 min.
B6 yielded a dissociation constant Kd of 86.5 nM, an off-rate (koff) of 0.0052 s⁻¹ and an on-rate constant (kon) of 61000 M⁻¹ s⁻¹.
For B7 the same measures were 193 nM, 0.0063 s⁻¹ and 33000 M⁻¹ s⁻¹.
B8 had a Kd of 12.2 nM, a koff of 0.0012 s⁻¹, an on-rate constant (kon) of 99000 M⁻¹ s⁻¹ and a t½ of 9.6 min.
As to B9, the equilibrium dissociation constant (Kd) is 93.7 nM, the off-rate (koff) is 0.0067 s⁻¹ and the on-rate (kon) is 71000 M⁻¹ s⁻¹.
B10 displayed a Kd of 76.2 nM, a koff of 0.0061 s⁻¹ and an association rate constant (kon) of 80000 M⁻¹ s⁻¹.
Consider B11, for which binding was characterised by a dissociation constant (Kd) of 113 nM, the koff amounted to 0.005 s⁻¹ and the on-rate (kon) came out at 44000 M⁻¹ s⁻¹.

Another test addresses T1, human PILRA, G78 variant, ectopically …. As to the kind of experiment: flow cytometry; blocking of NPDC1-hIgG1 binding to 293 cells expressing human PILRA G78.
For B2, the concentration for half-maximal inhibition (IC50) (in general, the concentration needed to halve the response being measured) was determined as 1.9 µg/mL.
The same measure, in the same setting: with B3 the figure was 0.64 µg/mL; with B5, 0.27 µg/mL.
With B6, the IC50 worked out at 5.7 µg/mL.
The molecule B7 registered an IC50 of 0.78 µg/mL.
Still for that read-out and setting: with B9 the figure was 0.38 µg/mL; with B10, 0.22 µg/mL.
On the same count and under the same terms, with B11 the figure was 0.32 µg/mL.
